Key:
癌胚抗原 (CEA) 抗原 [1] = target: T1, 癌胚抗原 (CEA) 抗原 (UniProt P06731 35-685, limits assumed); assay: ELISA, CEA antigen coated, detection with anti-His-HRP
T1 construct: The CEA antigen used for coating is not described further
T1 sequence (looked up): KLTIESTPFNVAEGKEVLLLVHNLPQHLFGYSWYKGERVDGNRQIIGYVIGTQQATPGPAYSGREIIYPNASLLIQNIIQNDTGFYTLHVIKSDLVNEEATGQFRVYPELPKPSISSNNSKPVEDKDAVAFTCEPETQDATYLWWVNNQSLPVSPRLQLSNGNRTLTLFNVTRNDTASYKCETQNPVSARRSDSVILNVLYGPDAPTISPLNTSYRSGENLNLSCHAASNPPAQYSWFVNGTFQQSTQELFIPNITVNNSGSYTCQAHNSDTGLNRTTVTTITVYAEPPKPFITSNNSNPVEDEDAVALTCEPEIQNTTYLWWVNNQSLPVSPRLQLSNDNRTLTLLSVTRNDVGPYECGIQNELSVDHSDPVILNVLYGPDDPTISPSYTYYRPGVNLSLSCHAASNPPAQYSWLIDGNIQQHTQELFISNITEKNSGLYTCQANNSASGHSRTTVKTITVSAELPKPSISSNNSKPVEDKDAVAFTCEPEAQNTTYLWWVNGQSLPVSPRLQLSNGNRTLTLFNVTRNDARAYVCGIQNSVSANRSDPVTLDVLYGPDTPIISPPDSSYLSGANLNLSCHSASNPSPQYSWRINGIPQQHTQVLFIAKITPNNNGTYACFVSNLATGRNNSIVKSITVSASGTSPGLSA

癌胚抗原 (CEA) 抗原 [2] = target: T1, 癌胚抗原 (CEA) 抗原; assay: ELISA, CEA antigen coated; converted from 183.6 ng/ml with the relative molecular mass 27486 g/mol

EC50 (癌胚抗原 (CEA) 抗原 [1]): 0.184 mg/L | EC50 (癌胚抗原 (CEA) 抗原 [2]): 6.7 nM
B1: 96ScFv 单链抗体 (靶向癌胚抗原的小分子抗体) (scFv)
scFv: MGQVRLRESGPSLVKPSQTLSLTCTVSGFSLTKYGVSWVRQAPGKALEWLGGVSSGALTAYNTALQSRLSVTRDTSKSQFSLSLSSVTTEDTAIYYCAKSVNGDSVPYGLDYWSPGLLITVSSGGGGSGGGGSGGGGSQAVLTQPSSVSGSLGQRVSITCSGSSSNIGGNAYVGWYQQVPGSAPRLLISATTDRASGIPDRFFGSRSGNTATLTISSLQAEDEADYYCASYQSTYSGVFGSGTMLAVLGTVAAPSVFHHHHHHHLGGC
notes: Expressed in E. coli from pET22-96ScFv and purified on Ni resin; The vector adds a C-terminal His tag and a cysteine; also called CEA小分子抗体; 本发明抗体片段

From CN112724255A (CHENGDU JINKUN BIOTECHNOLOGY CO LTD, dated 2021)
